{"source": "patent US20040154051A1", "about": "(SYNGENTA PARTICIPATIONS, published 2004)", "binders": {"B1": {"name": "NI16 clone (Arabidopsis NI16 cDNA clone from the pJG4-5 library, fused to the B42 transcriptional activation domain) (other, not shown: large carriers)", "chain": "MNNSLKKEERVEEDNGKSDGNRGKPSTEVVRTVTEEEVDEFFKILRRVHVATRTVAKVNGGVAEGELPSKKRKRSQNLGLRNSLDCNGVRDGEFDEINRVGLQGLGLDLNCKPEPDSVSLSL", "notes": "also called NI16 protein"}}, "molecular_target": "T1, NIM450 bait (first 450 amino acids of the NIM1 protein, LexA fusion) (Arabidopsis, UniProt P0A7C2 1-202; P93002 1-450)", "T1 construct": "The LexA fusion is stated outright only for the full-length bait", "T1 sequence (looked up)": "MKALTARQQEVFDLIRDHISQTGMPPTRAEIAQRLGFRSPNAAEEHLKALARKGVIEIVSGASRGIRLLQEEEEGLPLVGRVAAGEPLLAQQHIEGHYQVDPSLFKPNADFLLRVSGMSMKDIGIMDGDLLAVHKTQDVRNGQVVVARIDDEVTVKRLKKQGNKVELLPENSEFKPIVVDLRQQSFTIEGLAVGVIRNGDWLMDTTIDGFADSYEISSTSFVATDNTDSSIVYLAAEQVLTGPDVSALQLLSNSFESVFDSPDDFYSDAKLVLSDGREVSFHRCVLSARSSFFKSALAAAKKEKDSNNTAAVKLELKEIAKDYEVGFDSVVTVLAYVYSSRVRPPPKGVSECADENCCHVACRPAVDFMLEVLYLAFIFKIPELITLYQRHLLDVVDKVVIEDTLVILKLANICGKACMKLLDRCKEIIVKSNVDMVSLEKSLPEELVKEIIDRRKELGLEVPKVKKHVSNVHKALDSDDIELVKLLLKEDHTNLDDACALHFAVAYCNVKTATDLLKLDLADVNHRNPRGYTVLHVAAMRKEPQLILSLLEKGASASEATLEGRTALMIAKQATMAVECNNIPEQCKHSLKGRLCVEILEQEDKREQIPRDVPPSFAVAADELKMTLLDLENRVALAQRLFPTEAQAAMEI", "assay": "yeast two-hybrid (LexA bait, B42 prey; Leu2 and LacZ reporters)", "data": [{"binder": "B1", "values": [{"measurement": "binding result", "value": "no binding"}]}]}
